Data taken from patent US10005829B2, “Synthetic linear apelin mimetics for the treatment of heart failure” (priority 2012, dated 2018).
*1 amine or outer side, *2 acyl side, *3 side chain or, on linkers, in order; H or OH if unused. [ ]: non-standard residue; d: D form. Tyr(Bzl) = L-benzyl-tyrosine, O=C([C@H](Cc1ccc(OCc2ccccc2)cc1)N[*:1])[*:2]; Phe(3,4-Cl2) = N[C@@H](Cc1ccc(Cl)c(Cl)c1)C(=O)O; 2Nal = N[C@@H](Cc1ccc2ccccc2c1)C(=O)O; Cha = N[C@@H](CC1CCCCC1)C(=O)O; pGlu = O=C1CC[C@@H](C(=O)O)N1; dNle = CCCC[C@@H](N)C(=O)O; Nle = CCCC[C@H](N)C(=O)O; Aib = CC(C)(N)C(=O)O

T1: APJ receptor (human, UniProt P35414 1-380)
T1 sequence (looked up): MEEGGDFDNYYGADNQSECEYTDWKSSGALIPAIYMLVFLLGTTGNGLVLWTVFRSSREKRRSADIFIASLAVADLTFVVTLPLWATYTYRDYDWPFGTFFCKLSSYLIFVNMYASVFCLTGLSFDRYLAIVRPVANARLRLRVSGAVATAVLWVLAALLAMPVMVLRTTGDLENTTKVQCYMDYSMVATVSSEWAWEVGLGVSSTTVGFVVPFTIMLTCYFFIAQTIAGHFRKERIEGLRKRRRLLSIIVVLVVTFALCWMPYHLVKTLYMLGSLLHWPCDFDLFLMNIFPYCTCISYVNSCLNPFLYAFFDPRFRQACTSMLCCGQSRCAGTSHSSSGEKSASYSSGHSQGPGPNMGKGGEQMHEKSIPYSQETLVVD


Biological target: T1, APJ receptor
Test: cell-based or functional assay

Row | hAPJ Ca^2+ Flux EC50 [nM] | Binder
1 | 2.4 | ERPRLAHKGPLXF (pE at 1; D-Ala at 6; D-Nle at 11; D-Abu at 12; D-Phe at 13) [pE-R-P-R-L-a-H-K-G-P-nle-abu-f-OH]
2 | 9.2 | [pGlu]RPRL[dA][dF]KGP[dNle][dA][dF]-OH (SMILES CCCC[C@@H](NC(=O)[C@@H]1CCCN1C(=O)CNC(=O)[C@H](CCCCN)NC(=O)[C@@H](Cc1ccccc1)NC(=O)[C@@H](C)NC(=O)[C@H](CC(C)C)NC(=O)[C@H](CCCNC(=N)N)NC(=O)[C@@H]1CCCN1C(=O)[C@H](CCCNC(=N)N)NC(=O)[C@@H]1CCC(=O)N1)C(=O)N[C@H](C)C(=O)N[C@H](Cc1ccccc1)C(=O)O) [pE-R-P-R-L-a-f-K-G-P-nle-a-f-OH]
3 | 623 | [pGlu]R[dA]RL[dA]HKGP[dNle][dA][dF]-OH (SMILES CCCC[C@@H](NC(=O)[C@@H]1CCCN1C(=O)CNC(=O)[C@H](CCCCN)NC(=O)[C@H](Cc1c[nH]cn1)NC(=O)[C@@H](C)NC(=O)[C@H](CC(C)C)NC(=O)[C@H](CCCNC(=N)N)NC(=O)[C@@H](C)NC(=O)[C@H](CCCNC(=N)N)NC(=O)[C@@H]1CCC(=O)N1)C(=O)N[C@H](C)C(=O)N[C@H](Cc1ccccc1)C(=O)O) [pE-R-a-R-L-a-H-K-G-P-nle-a-f-OH]
4 | 99 | [pGlu]RPRL[dA]H[dK]GP[Nle][dA][dF]-OH [pE-R-P-R-L-a-H-k-G-P-Nle-a-f-OH]
5 | 2.8 | [pGlu]RPR[Cha][dA]HKGP[dNle][dA][dF]-OH (SMILES CCCC[C@@H](NC(=O)[C@@H]1CCCN1C(=O)CNC(=O)[C@H](CCCCN)NC(=O)[C@H](Cc1c[nH]cn1)NC(=O)[C@@H](C)NC(=O)[C@H](CC1CCCCC1)NC(=O)[C@H](CCCNC(=N)N)NC(=O)[C@@H]1CCCN1C(=O)[C@H](CCCNC(=N)N)NC(=O)[C@@H]1CCC(=O)N1)C(=O)N[C@H](C)C(=O)N[C@H](Cc1ccccc1)C(=O)O) [pE-R-P-R-Cha-a-H-K-G-P-nle-a-f-OH]
6 | 3.3 | [pGlu]RPRLS[Aib]KGP[Nle][dA][dF]-OH (SMILES CCCC[C@H](NC(=O)[C@@H]1CCCN1C(=O)CNC(=O)[C@H](CCCCN)NC(=O)C(C)(C)NC(=O)[C@H](CO)NC(=O)[C@H](CC(C)C)NC(=O)[C@H](CCCNC(=N)N)NC(=O)[C@@H]1CCCN1C(=O)[C@H](CCCNC(=N)N)NC(=O)[C@@H]1CCC(=O)N1)C(=O)N[C@H](C)C(=O)N[C@H](Cc1ccccc1)C(=O)O) [pE-R-P-R-L-S-Aib-K-G-P-Nle-a-f-OH]
7 | 2.4 | [pGlu]RPRLS[Aib]KGP[Nle][dA]F-OH (SMILES CCCC[C@H](NC(=O)[C@@H]1CCCN1C(=O)CNC(=O)[C@H](CCCCN)NC(=O)C(C)(C)NC(=O)[C@H](CO)NC(=O)[C@H](CC(C)C)NC(=O)[C@H](CCCNC(=N)N)NC(=O)[C@@H]1CCCN1C(=O)[C@H](CCCNC(=N)N)NC(=O)[C@@H]1CCC(=O)N1)C(=O)N[C@H](C)C(=O)N[C@@H](Cc1ccccc1)C(=O)O) [pE-R-P-R-L-S-Aib-K-G-P-Nle-a-F-OH]
8 | 79.9 | [pGlu]RPRLS[Aib][dK]GP[dNle][dA][dF]-OH (SMILES CCCC[C@@H](NC(=O)[C@@H]1CCCN1C(=O)CNC(=O)[C@@H](CCCCN)NC(=O)C(C)(C)NC(=O)[C@H](CO)NC(=O)[C@H](CC(C)C)NC(=O)[C@H](CCCNC(=N)N)NC(=O)[C@@H]1CCCN1C(=O)[C@H](CCCNC(=N)N)NC(=O)[C@@H]1CCC(=O)N1)C(=O)N[C@H](C)C(=O)N[C@H](Cc1ccccc1)C(=O)O) [pE-R-P-R-L-S-Aib-k-G-P-nle-a-f-OH]
9 | 4.5 | ERPRLSXKGPLPF (pE at 1; Aib at 7; Nle (L-norleucine) at 11; D-Phe at 13) [pE-R-P-R-L-S-Aib-K-G-P-Nle-P-f-OH]
10 | 69.2 | [pGlu]RPR[2Nal][dA]HKGP[dNle][dA][dF]-OH (SMILES CCCC[C@@H](NC(=O)[C@@H]1CCCN1C(=O)CNC(=O)[C@H](CCCCN)NC(=O)[C@H](Cc1c[nH]cn1)NC(=O)[C@@H](C)NC(=O)[C@H](Cc1ccc2ccccc2c1)NC(=O)[C@H](CCCNC(=N)N)NC(=O)[C@@H]1CCCN1C(=O)[C@H](CCCNC(=N)N)NC(=O)[C@@H]1CCC(=O)N1)C(=O)N[C@H](C)C(=O)N[C@H](Cc1ccccc1)C(=O)O) [pE-R-P-R-(2-Nal)-a-H-K-G-P-nle-a-f-OH]
11 | 16.1 | [pGlu]RPRL[dA][dA]KGP[dNle][dA][dF]-OH (SMILES CCCC[C@@H](NC(=O)[C@@H]1CCCN1C(=O)CNC(=O)[C@H](CCCCN)NC(=O)[C@@H](C)NC(=O)[C@@H](C)NC(=O)[C@H](CC(C)C)NC(=O)[C@H](CCCNC(=N)N)NC(=O)[C@@H]1CCCN1C(=O)[C@H](CCCNC(=N)N)NC(=O)[C@@H]1CCC(=O)N1)C(=O)N[C@H](C)C(=O)N[C@H](Cc1ccccc1)C(=O)O) [pE-R-P-R-L-a-a-K-G-P-nle-a-f-OH]
12 | 16.2 | ERPRLAHKGPLA (pE at 1; D-Ala at 6; D-Nle at 11; D-Ala at 12; C-terminal NH(Phenethyl) amide) [pE-R-P-R-L-a-H-K-G-P-nle-a-NH(Phenethyl)]
13 | 3.9 | [pGlu]RPRLS[Aib]KGP[dNle][dA]F-OH (SMILES CCCC[C@@H](NC(=O)[C@@H]1CCCN1C(=O)CNC(=O)[C@H](CCCCN)NC(=O)C(C)(C)NC(=O)[C@H](CO)NC(=O)[C@H](CC(C)C)NC(=O)[C@H](CCCNC(=N)N)NC(=O)[C@@H]1CCCN1C(=O)[C@H](CCCNC(=N)N)NC(=O)[C@@H]1CCC(=O)N1)C(=O)N[C@H](C)C(=O)N[C@@H](Cc1ccccc1)C(=O)O) [pE-R-P-R-L-S-Aib-K-G-P-nle-a-F-OH]
14 | 13.8 | [pGlu]RPR[Phe(3,4-Cl2)][dA]HKGP[dNle][dA][dF]-OH (SMILES CCCC[C@@H](NC(=O)[C@@H]1CCCN1C(=O)CNC(=O)[C@H](CCCCN)NC(=O)[C@H](Cc1c[nH]cn1)NC(=O)[C@@H](C)NC(=O)[C@H](Cc1ccc(Cl)c(Cl)c1)NC(=O)[C@H](CCCNC(=N)N)NC(=O)[C@@H]1CCCN1C(=O)[C@H](CCCNC(=N)N)NC(=O)[C@@H]1CCC(=O)N1)C(=O)N[C@H](C)C(=O)N[C@H](Cc1ccccc1)C(=O)O) [pE-R-P-R-(3,4-Cl2-F)-a-H-K-G-P-nle-a-f-OH]
15 | 2 | [pGlu]RPRLS[Aib]KGP[dNle][dA][dF]-OH (SMILES CCCC[C@@H](NC(=O)[C@@H]1CCCN1C(=O)CNC(=O)[C@H](CCCCN)NC(=O)C(C)(C)NC(=O)[C@H](CO)NC(=O)[C@H](CC(C)C)NC(=O)[C@H](CCCNC(=N)N)NC(=O)[C@@H]1CCCN1C(=O)[C@H](CCCNC(=N)N)NC(=O)[C@@H]1CCC(=O)N1)C(=O)N[C@H](C)C(=O)N[C@H](Cc1ccccc1)C(=O)O) [pE-R-P-R-L-S-Aib-K-G-P-nle-a-f-OH]
16 | 34.5 | ERPRLAHKGPLPF (pE at 1; D-Ala at 6; Nle (L-norleucine) at 11; D-Phe at 13) [pE-R-P-R-L-a-H-K-G-P-Nle-P-f-OH]
17 | 3 | ERPRLXHKGPLAF (pE at 1; D-Abu at 6; D-Nle at 11; D-Ala at 12; D-Phe at 13) [pE-R-P-R-L-abu-H-K-G-P-nle-a-f-OH]
18 | 10.7 | ERPRLAHKGPLF (pE at 1; D-Ala at 6; Nle (L-norleucine) at 11; D-Phe at 12) [pE-R-P-R-L-a-H-K-G-P-Nle-f-OH]
19 | 2.4 | [pGlu]RPRL[dA]HKGP[Nle][dA][dF]-OH [pE-R-P-R-L-a-H-K-G-P-Nle-a-f-OH]
20 | 5 | [pGlu]RPR[dL]S[Aib]KGP[dNle][dA][dF]-OH (SMILES CCCC[C@@H](NC(=O)[C@@H]1CCCN1C(=O)CNC(=O)[C@H](CCCCN)NC(=O)C(C)(C)NC(=O)[C@H](CO)NC(=O)[C@@H](CC(C)C)NC(=O)[C@H](CCCNC(=N)N)NC(=O)[C@@H]1CCCN1C(=O)[C@H](CCCNC(=N)N)NC(=O)[C@@H]1CCC(=O)N1)C(=O)N[C@H](C)C(=O)N[C@H](Cc1ccccc1)C(=O)O) [pE-R-P-R-(D-Leu)-S-Aib-K-G-P-nle-a-f-OH]
21 | 4.5 | [pGlu]RPRL[dA]HKGP[Nle][dA]F-OH [pE-R-P-R-L-a-H-K-G-P-Nle-a-F-OH]
22 | 796 | [pGlu][dR]PRL[dA]HKGP[dNle][dA][dF]-OH [pE-r-P-R-L-a-H-K-G-P-nle-a-f-OH]
23 | 114 | [pGlu]RPRY[dA]HKGP[dNle][dA][dF]-OH (SMILES CCCC[C@@H](NC(=O)[C@@H]1CCCN1C(=O)CNC(=O)[C@H](CCCCN)NC(=O)[C@H](Cc1c[nH]cn1)NC(=O)[C@@H](C)NC(=O)[C@H](Cc1ccc(O)cc1)NC(=O)[C@H](CCCNC(=N)N)NC(=O)[C@@H]1CCCN1C(=O)[C@H](CCCNC(=N)N)NC(=O)[C@@H]1CCC(=O)N1)C(=O)N[C@H](C)C(=O)N[C@H](Cc1ccccc1)C(=O)O) [pE-R-P-R-Y-a-H-K-G-P-nle-a-f-OH]
24 | 4.4 | [pGlu]RPRL[dA]LKGP[dNle][dA][dF]-OH (SMILES CCCC[C@@H](NC(=O)[C@@H]1CCCN1C(=O)CNC(=O)[C@H](CCCCN)NC(=O)[C@H](CC(C)C)NC(=O)[C@@H](C)NC(=O)[C@H](CC(C)C)NC(=O)[C@H](CCCNC(=N)N)NC(=O)[C@@H]1CCCN1C(=O)[C@H](CCCNC(=N)N)NC(=O)[C@@H]1CCC(=O)N1)C(=O)N[C@H](C)C(=O)N[C@H](Cc1ccccc1)C(=O)O) [pE-R-P-R-L-a-L-K-G-P-nle-a-f-OH]
25 | 121 | [pGlu]RPR[Tyr(Bzl)][dA]HKGP[dNle][dA][dF]-OH [pE-R-P-R-Y(Bzl)-a-H-K-G-P-nle-a-f-OH]
26 | 1.7 | ERPRLAHKGPLAX (pE at 1; D-Ala at 6; D-Nle at 11; D-Ala at 12; D-Tic at 13) [pE-R-P-R-L-a-H-K-G-P-nle-a-tic-OH]
27 | 14.8 | [pGlu]RPRL[dA]HKGP[dNle][dA][dF]-NH2 [pE-R-P-R-L-a-H-K-G-P-nle-a-f-NH2]
